For assay [1], the target named is T1, wild type hEGFR (human EGFR wild type) on transiently transfected HEK293F cells (human, UniProt P00533 25-1210).
T1 construct: whole, on cells; also called wild type EGFR
Kind of assay: FACS, purified His-tagged scFv on HEK293F cells transiently transfected with wild type hEGFR, anti-poly His PE. As to the method:
(§1) HEK293F suspension cells were transiently transfected with either wild type hEGFR or hEGFRvIII and were harvested 2 days after transfection. Approximately 5e5 cells/per well were transferred to a BD Falcon 96 well plate. The cells were spun down at 900 rpm (Sorval Legend XT centrifuge) for 3 minutes. The supernatant was removed. Anti-EGFRvIII scFv protein samples were diluted in DPBS with 5% FBS. The samples were added into the wells, mixed and incubated for 1 hour. The cells were washed twice in the DPBS with 5% FBS. The cells were incubated with anti-poly His PE (R&D) for 1 hour, washed twice before FACS analysis (LSRII from BD Biosciences).

Assay [2] addresses T2, hEGFRvIII (human epidermal growth factor receptor variant III) on transiently transfected HEK293F cells (human, UniProt P00533 25-1210).
T2 construct: whole, on cells; also called human EGFRvIII
As to the kind of experiment: FACS, purified His-tagged scFv on HEK293F cells transiently transfected with hEGFRvIII, anti-poly His PE. As to the method:
as §1
(In flow cytometry, cells or beads pass a laser one at a time.)

The target in assay [3] is T3, EGFRvIII-Fc fusion protein (UniProt P00533 25-645, limits assumed).
T3 construct: not shown: detected with PE anti-human IgG Fc
As to the kind of experiment: flow cytometry, Jurkat E6 cells electroporated with CAR vector, titrated EGFRvIII-Fc, PE anti-human IgG Fc. On the procedure: Jurkat E6 cells were electroporated with either CAR9 vector or CAR10 vector using Amaxa Cell Line Nucleofector Kit V (Lonza, Colgne AG, Germany) and program X-001. One day after the transfection, 0.5×10⁶ cells were placed into each well of a V-shape 96 well plate (Greiner Bio-One, Germany) in 0.2 ml FACS buffer (DPBS buffer containing 5% FBS) and incubated for 10 minutes at room temperature. Cells were then spun down and resuspended in 0.2 ml of the FACS buffer with different concentrations of EGFRvIII-Fc or EGFRwt-Fc and incubated at 4° C. for 30 minutes. Cells were then washed with FACS buffer three times, and incubated with 0.2 ml of the FACS buffer with 2 μl of PE anti-human IgG Fc (Jackson ImmunoResearch Laboratories, West Grove, Pa.) for 30 minutes at 4° C. in the dark. After washing with 0.2 ml of FACS buffer three times, cells were analyzed on a LSRII (BD Biosciences, San Jose, Calif.) machine using the FACSDiva software (BD Biosciences, San Jose, Calif.). Immunofluorescence staining was analyzed as the relative log fluorescence of live cells, and the percentage of the PE positive cells were measured.

B1: CAR5 soluble scFv (humanized anti-EGFRvIII scFv, VH1-VK2) (scFv)
scFv: EIQLVQSGAEVKKPGATVKISCKGSGFNIEDYYIHWVQQAPGKGLEWMGRIDPENDETKYGPIFQGRVTITADTSTNTVYMELSSLRSEDTAVYYCAFRGGVYWGQGTTVTVSSGGGGSGGGGSGGGGSGGGGSDVVMTQSPLSLPVTLGQPASISCKSSQSLLDSDGKTYLNWLQQRPGQSPRRLISLVSKLDSGVPDRFSGSGSGTDFTLKISRVEAEDVGVYYCWQGTHFPGTFGGGTKVEIKGSHHHHHHHH
notes: also called CAR5 scFv
For the molecule B1, the binding result in assay [1] was “no binding”; in assay [2] it was “binds”.

B2: CAR3 soluble scFv (humanized anti-EGFRvIII scFv, VH5-VK2) (scFv)
scFv: EIQLVQSGAEVKKPGESLRISCKGSGFNIEDYYIHWVRQMPGKGLEWMGRIDPENDETKYGPIFQGHVTISADTSINTVYLQWSSLKASDTAMYYCAFRGGVYWGQGTTVTVSSGGGGSGGGGSGGGGSGGGGSDVVMTQSPLSLPVTLGQPASISCKSSQSLLDSDGKTYLNWLQQRPGQSPRRLISLVSKLDSGVPDRFSGSGSGTDFTLKISRVEAEDVGVYYCWQGTHFPGTFGGGTKVEIKGSHHHHHHHH
notes: also called CAR3 scFv
In the case of B2, the binding result in assay [1] was “no binding”; in assay [2] it was “binds”.

B3: CAR2 soluble scFv (humanized anti-EGFRvIII scFv, VK4-VH1) (scFv)
scFv: DVVMTQSPDSLAVSLGERATINCKSSQSLLDSDGKTYLNWLQQKPGQPPKRLISLVSKLDSGVPDRFSGSGSGTDFTLTISSLQAEDVAVYYCWQGTHFPGTFGGGTKVEIKGGGGSGGGGSGGGGSGGGGSEIQLVQSGAEVKKPGATVKISCKGSGFNIEDYYIHWVQQAPGKGLEWMGRIDPENDETKYGPIFQGRVTITADTSTNTVYMELSSLRSEDTAVYYCAFRGGVYWGQGTTVTVSSGSHHHHHHHH
notes: also called CAR2 scFv
With B3, the values for the binding result in assay [1] and in assay [2] were “no binding” and “binds”, respectively.

B4: CAR4 soluble scFv (humanized anti-EGFRvIII scFv, VK2-VH5) (scFv)
scFv: DVVMTQSPLSLPVTLGQPASISCKSSQSLLDSDGKTYLNWLQQRPGQSPRRLISLVSKLDSGVPDRFSGSGSGTDFTLKISRVEAEDVGVYYCWQGTHFPGTFGGGTKVEIKGGGGSGGGGSGGGGSGGGGSEIQLVQSGAEVKKPGESLRISCKGSGFNIEDYYIHWVRQMPGKGLEWMGRIDPENDETKYGPIFQGHVTISADTSINTVYLQWSSLKASDTAMYYCAFRGGVYWGQGTTVTVSSGSHHHHHHHH
notes: also called CAR4 scFv
Take B4: the binding result in assay [1] was “no binding”; in assay [2] it was “binds”.

B5: CAR10 (chimeric antigen receptor with anti-EGFRvIII clone 139 scFv), expressed on Jurkat E6 cells or primary human T cells (other)
chain: DIQMTQSPSSLSASVGDRVTITCRASQGIRNNLAWYQQKPGKAPKRLIYAASNLQSGVPSRFTGSGSGTEFTLIVSSLQPEDFATYYCLQHHSYPLTSGGGTKVEIKRTGSTSGSGKPGSGEGSEVQVLESGGGLVQPGGSLRLSCAASGFTFSSYAMSWVRQAPGKGLEWVSAISGSGGSTNYADSVKGRFTISRDNSKNTLYLQMNSLRAEDTAVYYCAGSSGWSEYWGQGTLVTVSSTTTPAPRPPTPAPTIASQPLSLRPEACRPAAGGAVHTRGLDFACDIYIWAPLAGTCGVLLLSLVITLYCKRGRKKLLYIFKQPFMRPVQTTQEEDGCSCRFPEEEEGGCELRVKFSRSADAPAYKQGQNQLYNELNLGRREEYDVLDKRRGRDPEMGGKPRRKNPQEGLYNELQKDKMAEAYSEIGMKGERRRGKGHDGLYQGLSTATKDTYDALHMQALPPR
For the molecule B5, the “fold lower binding compared to CAR9” value in assay [3] is around 40 fold.

B6: CAR8 soluble scFv (humanized anti-EGFRvIII scFv, VK2-VH1) (scFv)
scFv: DVVMTQSPLSLPVTLGQPASISCKSSQSLLDSDGKTYLNWLQQRPGQSPRRLISLVSKLDSGVPDRFSGSGSGTDFTLKISRVEAEDVGVYYCWQGTHFPGTFGGGTKVEIKGGGGSGGGGSGGGGSGGGGSEIQLVQSGAEVKKPGATVKISCKGSGFNIEDYYIHWVQQAPGKGLEWMGRIDPENDETKYGPIFQGRVTITADTSTNTVYMELSSLRSEDTAVYYCAFRGGVYWGQGTTVTVSSGSHHHHHHHH
notes: also called CAR8 scFv
As for B6, the figures for the binding result in assay [1] and in assay [2] were “no binding” and “binds”, respectively.

B7: CAR1 soluble scFv (humanized anti-EGFRvIII scFv, VH1-VK4) (scFv)
scFv: EIQLVQSGAEVKKPGATVKISCKGSGFNIEDYYIHWVQQAPGKGLEWMGRIDPENDETKYGPIFQGRVTITADTSTNTVYMELSSLRSEDTAVYYCAFRGGVYWGQGTTVTVSSGGGGSGGGGSGGGGSGGGGSDVVMTQSPDSLAVSLGERATINCKSSQSLLDSDGKTYLNWLQQKPGQPPKRLISLVSKLDSGVPDRFSGSGSGTDFTLTISSLQAEDVAVYYCWQGTHFPGTFGGGTKVEIKGSHHHHHHHH
notes: not tied in words; also called CAR1 scFv
B7: the binding result is “no binding” in assay [1] and “binds” in assay [2].

These data come from patent US20220088075A1 (University of Pennsylvania, published 2022).
